In paper PMC4601640 (2015) one finds Kd data, which are given here for 2 molecules.

For experiment [1], the target named is T1, CK2-phosphorylated human full-length p50^Cdc37 (human, UniProt Q16543 1-378, phosphoserine at 13 (shown by Western blot)).
T1 chain: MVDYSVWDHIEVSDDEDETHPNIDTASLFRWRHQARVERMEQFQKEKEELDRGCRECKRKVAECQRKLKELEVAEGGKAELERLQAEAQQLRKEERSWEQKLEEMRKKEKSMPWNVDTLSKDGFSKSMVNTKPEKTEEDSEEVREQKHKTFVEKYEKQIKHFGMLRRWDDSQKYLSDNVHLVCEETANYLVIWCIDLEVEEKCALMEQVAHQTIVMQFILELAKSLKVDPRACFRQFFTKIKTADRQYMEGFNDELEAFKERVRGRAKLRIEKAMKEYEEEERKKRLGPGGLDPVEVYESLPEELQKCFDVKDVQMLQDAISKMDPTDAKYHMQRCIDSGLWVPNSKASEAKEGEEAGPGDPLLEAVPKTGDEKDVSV
As to the kind of experiment: ITC; both phosphorylated. Background: Isothermal titration calorimetry measures the heat released or taken up as one component is titrated into another.

Experiment [2] addresses T1, CK2-phosphorylated human full-length …. Description: ITC; phosphorylated Cdc37.

What is called Kd is the equilibrium constant for the complex coming apart. Low readings indicate a tighter complex, high ones a looser complex.

B1: CK2-phosphorylated human full-length Hsp90β (natural protein)
chain: not shown
modifications: phosphoserine at 255 (shown by Western blot); Ser226 named as a CK2 site, its phosphorylation could not be verified
In turn, B1 returned a Kd in experiment [1] of 1.9 µM.

B2: human full-length Hsp90β (natural protein)
chain: not shown
In the case of B2, the Kd in experiment [2] came to 1.4 µM.
